# Key:
# [1] = molecular target: T1, 7BP (RXFP1 ectodomain fused to the single trans-membrane-spanning domain of CD8) (Homo sapiens, UniProt Q9HBX9); assay: Competitive binding assay with Eu3+-labeled H2 relaxin in HEK-7BP cells; conditions: whole-cell competition binding vs Eu3+-labeled H2 relaxin, HEK cells expressing 7BP; one-site fit; mean ± S.E.M., n of experiments in brackets
# T1 construct: contains the RXFP1 ectodomain fused to the single trans-membrane-spanning domain of CD8; expressed in transfected cells; host or cells: HEK cells (HEK-7BP)
# T1 sequence (Q9HBX9 1-409 limits assumed): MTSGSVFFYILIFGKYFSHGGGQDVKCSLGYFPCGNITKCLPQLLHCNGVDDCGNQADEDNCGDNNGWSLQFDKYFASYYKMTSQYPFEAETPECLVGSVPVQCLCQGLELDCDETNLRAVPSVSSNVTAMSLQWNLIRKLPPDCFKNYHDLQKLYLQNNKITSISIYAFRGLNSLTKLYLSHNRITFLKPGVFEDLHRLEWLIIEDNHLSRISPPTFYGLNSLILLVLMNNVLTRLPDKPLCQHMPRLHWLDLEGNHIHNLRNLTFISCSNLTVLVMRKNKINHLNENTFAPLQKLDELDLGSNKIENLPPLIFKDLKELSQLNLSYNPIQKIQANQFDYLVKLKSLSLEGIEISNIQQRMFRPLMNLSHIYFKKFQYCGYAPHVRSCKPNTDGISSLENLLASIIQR
# Procedure: Human embryonic kidney (HEK-293T) cells stably transfected with RXFP1 were cultured in RPMI 1640 medium supplemented with 10% fetal calf serum, 100 μg mL^−1 penicillin, 100 μg mL^−1 streptomycin, and 2 mM of L-glutamine and plated into 96-well plates pre-coated with poly-L-lysine for whole-cell binding assays (Merck, Darmstadt, Germany). Competition binding experiments using Eu^3+-labeled H2 relaxin in the absence or presence of increasing concentrations of unlabeled H2 relaxin B-chain derivatives were conducted as previously described [13]. All data are presented as the mean ± S.E.M. of the % specific binding of triplicate wells, repeated in at least three separate experiments, and curves were fitted using one-site binding curves in GraphPad Prism 9 (GraphPad Inc., San Diego, CA, USA).
# RXFP1 = molecular target: T2, RXFP1 (Homo sapiens, UniProt Q9HBX9); assay: cAMP activity assay in HEK-RXFP1 cells (pCRE β-gal reporter); type: cell-based; conditions: HEK-RXFP1 cells stably transfected with pCRE β-gal reporter, 37 °C for 6 h; four-parameter fit; mean ± S.E.M., n in brackets
# T2 construct: expressed in transfected cells; host or cells: HEK-293T
# T2 sequence (Q9HBX9 1-757): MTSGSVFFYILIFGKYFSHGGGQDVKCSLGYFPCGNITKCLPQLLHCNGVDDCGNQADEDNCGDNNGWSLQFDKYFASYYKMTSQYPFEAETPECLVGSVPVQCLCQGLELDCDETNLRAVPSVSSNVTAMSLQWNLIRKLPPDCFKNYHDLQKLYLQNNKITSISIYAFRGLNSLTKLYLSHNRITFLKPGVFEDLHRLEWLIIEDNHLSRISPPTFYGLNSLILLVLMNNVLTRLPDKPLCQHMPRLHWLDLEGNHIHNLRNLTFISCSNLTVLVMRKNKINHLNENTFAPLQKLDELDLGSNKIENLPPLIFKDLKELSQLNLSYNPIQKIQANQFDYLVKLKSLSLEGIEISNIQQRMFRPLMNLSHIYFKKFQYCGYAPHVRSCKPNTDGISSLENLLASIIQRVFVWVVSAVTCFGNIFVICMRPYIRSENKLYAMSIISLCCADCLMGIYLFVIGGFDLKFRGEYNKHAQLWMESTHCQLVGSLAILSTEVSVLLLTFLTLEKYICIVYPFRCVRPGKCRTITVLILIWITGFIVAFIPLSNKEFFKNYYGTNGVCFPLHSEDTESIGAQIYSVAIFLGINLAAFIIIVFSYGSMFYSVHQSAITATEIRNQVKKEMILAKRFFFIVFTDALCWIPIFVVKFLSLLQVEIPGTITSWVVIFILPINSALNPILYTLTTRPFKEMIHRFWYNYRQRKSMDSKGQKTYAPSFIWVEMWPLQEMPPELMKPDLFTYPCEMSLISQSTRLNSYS
# Procedure: The ability of peptide analogs to activate cAMP in HEK-RXFP1 cells stably transfected with a pCRE β-gal reporter gene construct was tested as described in detail previously [13]. Cells were stimulated with increasing concentrations of peptide analogs in parallel to H2 relaxin (positive) or media (negative) controls, then incubated at 37 °C for 6 h, after which the media were aspirated, and the cells were frozen at −80 °C overnight. The following day, cAMP-driven β-gal expression was determined in cell lysates as described [32]. Experiments were performed in triplicate at least 3 times, and data were fitted to a four-parameter sigmoidal dose–response curve using GraphPad Prism 9 to determine ligand potency (pEC50).
substance,measurement,setting,value
"B13-31: N-terminally truncated single-chain H2 relaxin analog, residues 13–31 (RELVRAQIAICGMSTWSKR; Relaxin B chain; UniProt P04090 37-55, looked up, fragment)",7BP Eu-H2 pKi,[1],< 5
same,cAMP pEC50,RXFP1,No activity

# Reference: publication PMC10454739, “Further Developments towards a Minimal Potent Derivative of Human Relaxin-2” (International Journal of Molecular Sciences, 2023)
